Measured values published in the DeepSol protein solubility set.

Test: soluble on expression in E. coli; label from the status in PepcDB or PDB records

Sequence	soluble on expression in E. coli
MSLRRDHTRTAQVTHVESLTNSPGVRENWPGWASPAVVERMVKSGVAKPWSHQVRAANLAHSGSNVIIATGISSGKSLGFLMPCTAAIAEGGSVLYLAPTKALAADQERKLAELAMPGVRAAVYDGDTPMEERSWARAHANYVLTNPDMLHRSIVARHPVWAGFLRRLSYVVVDEAHHYRGVFGSHVAQIMRRLRRVCGCYGAEPRFILASATTATPAETAQQLTGLPVVAVTGDGSARASLRFALVEPELTEKTGEQGAPMRRTATAVAAELLADLVSHEVSTLVFVRSRQAAELVALAAQRALADAGRPELARRVAAYRGGYLAEDRRRLEQRLRSGELLGLATTNALELGVDVSGLDAVVMAGWPGTRASLWQQAGRAGRSGRDALAVFVARDDPLDTYLVHHPDAIFGQDVEATVLDPDNPYVLAPHLCAAAEEEGHHHHHH	not soluble
MAGDPMVLKRIRDMFVASVHEGLDKMENPKVMLNQYVRDMESDIAKAKQTIVKQHTIAYQFKKKYEEAAEVAGKRKNQAQLAFDAGEEELAKKALTEMKYLEGKAAEHKASYEQANSQLADLKEQLAALETKLQDVKDKKQALIARANAAKAKEHMNTTFDKIDSESAYREFLRIENRIEEMEIRANYSKSAEAGTELTRKEFADDVEAEIEKMRTLSLQKSDQTKAANELEHHHHHH	soluble
MTKQDQLIVEKMEQTYEAFSPKLANLIEALDAFKEHYEEYATLRNFYSSDEWFRLANQPWDDIPCGVLSEDLLFDMIGDHNQLLADILDLAPIMYKHM	not soluble
MAHHHHHHMSTSYSVTTYMTTTYVNCEDVSGSDSEYSEYDLVNEQMQDFLLDSEDTSDGDADVEDILGFGAVFMGGLMPTRSMDAHQACAWRRTTKPNRRRIAKKSESCSSLSNAARLTASSSTTMLSDLDTVVREAVVTGGAAQRRGTRKQRRAMASGERRWLVPPLSAVSVESTDGGNDGRRQLPWFTVVFDLDETLVGARYGPIHLRPHVGELLRSLHRLPVEIIVWTAGTAHYVNPILHAIGQACGRRQWFHHIISRHKRWYRDTNVSVKDLRQLGRPLDRLVMVENNPISALPQPSLCVLLEDYLQPNAADESLLVLKGLLERLALQYERAARTSSATGTCEQASEEECPAQRHTRSPRNTLRDATATRTTALPSLELLVRDDAALQLVEFRMEDILKEDGVPMLQQAEMRELVGGADTLRCLCLCYTPPLLPSSTAVAPQGTAALMSCVSMAMRSYGSVNPLRPL	not soluble
CSCSPVHPQQAFCNADIVIRAKAVNKKEVDSGNDIYGNPIKRIQYEIKQIKMFKGPDQDIEFIYTAPAAAVCGVSLDIGGKKEYLIAGKAEGNGNMHITLCDFIVPWDTLSATQKKSLNHRYQMGCECKITRCPMIPCYISSPDECLWMDWVTEKNINGHQAKFFACIKRSDGSCAWYRGAAPP	soluble
MGSDKIHHHHHHMLKKYLISLDKDIQRRELFFSQKNTEDFQVFSAINTMQKDWDELAAIFNIEQFKAHYFRNVTKGEIGCTLSHLSVYQKIVEDNDIAEDSYALVCEDDALFHSDFQQNLTALLSEKLEAEIILLGQSKINDFNDFDLEINYPTTFSFLCKKTGDVNYAFPYKSYFAGTVGYLIKKSAARRFIQQISQNKPFWLADDFLLFEQNFNIRNKVVRPLIVIENPVLISNLESVRGSLSNNLLKKLMKYPLKKIFAIKKNLAN	not soluble
MSLKLRARLPRGLADRGPAEIAATRAMVEKIREVYERYGFEPVETPAFEYTDALGKFLPDQDRPNEGVFSLQDDDEQWISLRYDLTAPLARYVAENFDQLPKPHRSYRFGWVFRNEKPGPGRFRQFMQFDADTVGAPTAAADAEMCMMAADTMEALGIPRGSYVVKVNNRKVLDGVLESIGLGGDENAGRRLTVLRAIDKSDKFAPEEIKKLLGPGRWDGGEEGKGDFTKGAMLSDDQSELILRATSPSFIAGRFNADGSGGISNIDTVELLRSTADNETLKQGCDELAVIADLLDACGYGATSANPDVRVVIDPSVVRGLEYYTGPVYEVELLLDTKDEKGRPVRFGSVGGGGRYDGLVSRFRGEPVPATGFSIGVSRLQAALTLIGQLGNKPQAGPVVVTVFGGEIAGYQKMVATLRKAGIRAELYLGNPKHSLGQQMKYADKRNSPCAIIQGSDEKQQGIVQIKDLILGAELASLEKDRDEYLKKQAEAQFSEGHHHHHH	not soluble
MTPRIEVAAPKEPITINMNVKIEHEIIIKADKDVEELLETRSDLFLEHHHHHH	not soluble
MTSEKLSAACHCGSVVFTVQLSDGFHTARRCNCSFCRMRGAVAVSAPLSGIKVLKGQDKLTEYRFNTGKAVHFFCSVCGIYTFHQRRSNPDQYGVNVACIENVSPFDFACVEVNDGVTHPSDGGSSGVVGYLRYEPKKSPPVETGGKNILEHHHHHH	soluble
MSLVTKGKSAQYIKDESAFEDFLIGSGLEEASLSLSSGEVRTGQDLRAVIDDALAIRTLINGLHTRYSRTVVEQAAIAGALNPDLFNDLGRANAMAETIARRLDLVAEDTERGWQGRTSTSNEGPGGYIMERTVRGVKESATLDMALLGSADARALDRYAARLGEEGHHHHHH	not soluble
MDDKKDNRHLSKPAYREECTGDTERSTTAYMDILEDVSTGSTSKLPLEAKFVKISNNISEKENLPKEKEIGGVKGLEPTRYGDWQHKGKVTDF	soluble
MDILKKIEKYREEEQRLKWEGTFADYLEIIKENPMVAQSAHSRVFNMIKDSGIEEIDGRKKYSFFDRELFGLEESLERLVEEYFHPAAKRLDVRKRILLLMGPVSGGKSTLVTMLKKGLEAYTLTDNGAVYAIKGCPMHEDPLHLIPHHLRDDFYREYGIRIEGSLSPLNVMRLEEEYGGRIEDVKVERIFFSEDKRTGIGTFSPSDPKSQDIADLTGSIDFSTIAEYGSESDPRAYRFDGELNKANRGMMEFQEMLKCDEKFLWHLLSLTQEGNFKAGRFALISADELIVAHTNETEYRSFISNKKNEALHSRIIVMPVPYNLKVSEEERIYEKMIAESDVADVHIAPHTLKVAAMFSILTRLKEPKRSD	not soluble
MTSGTSVINDKVLQYETFISEVLRRDLQKVLEQRDAVYEKIAQYLQLKNTIQSIQESGSKELKTDVDLGCNFYVQAHVPDASRIYVAVGYGFFVEFTHAEALKFIEKKTNQLTEYTEVLTKDAAKIKANIRMVLEGLRELQGLKDLPEDRRREVF	not soluble
MGSDKIHHHHHHMIIGMSIARMFSRCTPIPNLSVRYNLDLYHLEFPIMAFIRQEDFIDSIHQALQYIACYHSPDFLAAMHDAWQREPSPAARDAIGQILINSYLCAQGQRPLCQDTGIVVAFVSVGMNVQWQASMSLQEMVDEGVRRAYLDPDNRLRASIVRDPAGKRLNTRDNTPSVVHVDMVPGDTVEIHIAAKGGGSENKSKLAMLEPSDDLIEWVLKTVPEMGAGWCPPGVLGIGIGGTAEKAVLLAKQSLFAPIDIQALRARGPQTRAEELRLEIYEKVNRLGIGAQGLGGLTTVLDVKILEAPTHATSLPVAIIPNCAATRHVHFTLDGTGPARLPAPRLEDWPRVALDASTPMRRVDLGKVTREDVISWQPGEKLLLSGKLLTGRDAAHKRIVDLIARGEPMPEGLDFTNRFIYYVGPVDPVGDEIIGPAGPTTATRMDRFTETMLTQTGLLGMIGKAERGEATVQSIKRHQSVYLIAIGGAAYLISQAIKASRIVAFADLGMEAIYEFTVEDMPVTVAVDSRGHAVHDTGPAEWRPRIANIPIFSE	not soluble
MAHHHHHHMVLLKILKKIKDNKRNLRILILGLDNAGKTTIIKRLLGEDIYSVSPTFGFNIETLEFGNNILNIWDIGGQKSIRHFWKNYYEDVDGIIFVVDSTDLFRLQLCSFELKQILKEERLYGSTLLILSNKVDIDKSLTINQIVEILKLNEMNMDRHWCINECSAFSGKGLLKSFMWLIDDITDRIDS	not soluble
MKIWSKEEVVNKLHEIKNKGYLSVPTDMFRTDDGVVGQILERQFGVQENNITLGDLGEFELKGMRNRKAKSNLTLFHKKPVAGQTVIQIFNRFGYVKPSSRNPEVMKKKLFTTIKGGRLNNLGLTLNAKHASEINLYYQDEYLSTWDLNLSKIEKLVLVFAETIGRANSPEEQFHFTKAYMLTEINDITSLINDGVLVMDLCIDQDLSKSKGPHDRGPHLRIPISKLDKLYRNIERLL	soluble
MGSDKIHHHHHHMWTPMRDGPPKGMHGGKSERPISPRMKPSGLRIWTGSPRAANSERASDEALSCTHIQTCVARLRDTFPSGTVERGQHGGTTVNLIDGIKGNRFAVFGRAGMDMFADPIGTKSEDATTFRADLGGSSANICAGLVKLGAEAALVTSVSDDAVGRFCVNRLRDYGVETRYVRAVGGEARTSLAVYESRIDDFQNVIYRNGAADFQVTKADMDAVDYSAFSALITAGTVFAAEPSRSATFRAFEHARTAGLPVIFDIDYRPYSWPSPEVASEVLTRAGEASDLIVGNDEEFGFMAGHIDKGLEKARALAAQGRMVIYKMGEAGAITIAEGQEIRTGIYPVTAVKPNGAGDSFMAGLLASIAQGHALSDAVLRGSACASIVVSQPGCANAMPTTAELEAFLASHPGPTV	not soluble
MGSDKIHHHHHHMNVLNDSVDDTVQKKVAFFLPTLNIGGIERVFITYANYLIDKKYNIYFILCKRRGELLSLLDSNIKLYHLGNVQLKFSFLKLRQSLKEIQPDVIVSGGDFPNLILIVSSLGLKKVPKIIISQHNYYNVETRRLGWWAYGTCFFMKKIYPKADKIIAVSDGIREFLIKKIHISADRIIKLPNPIDIKGIKEKSLELLDITLPDRYILFVGRLSYVKNLFFLLDAFEMGKLDNNSLVIVGDGEMRNALMKKAKKMHKADNIIFLGAMENPLPILKKAQLLVLPSFSEAYPTILLEALCLYIPVVSTPTKGAKEILHNVSGTYISTDCYNIEEFARLMERGVKERISHKVIDDKIGLNSIENIGLRIQREIIEDNRL	not soluble
MSLMIVYKGEKMQFIRVNTLKINPEVLKKRLENKGVVLEKTFLDYAFEVKKSPFSIGSTPEYLFGYYMPQSISSMIPPIVLNPREDDFILDMCAAPGGKTTHLAQLMKNKGTIVAVEISKTRTKALKSNINRMGVLNTIIINADMRKYKDYLLKNEIFFDKILLDAPCSGNIIKDKNRNVSEEDIKYCSLRQKELIDIGIDLLKKDGELVYSTCSMEVEENEEVIKYILQKRNDVELIIIKANEFKGINIKEGYIKGTLRVFPPNEPFFIAKLREGGSHHHHHH	soluble
MSLGSDIPTLRAALARSDAWLVACFCAAWCDTCQQYRPKLLELARARPGHTFAWIDIEDHPDLLGEEDVENFPTLLVQAHGKVLFYGPMLPHIGHLERLLDSLDPQGREGHHHHHH	soluble
MKKTIISTLVIGLVSGCSNTNLLKDNLASEQSVINLSKSSNEAKSRNIEFLSGAYLSERKVPKHDIKFSGKYVEFESKSPIELIDVLDGLSKQYNIQYVFSDELEDENSEENKKSSGSSSAKKIKYSGPLAGFFDYLSSAYNMHFEFGHNNLVKAYHYKNQVFNLQQYFDDNKFSSSMQIGGTSGTSSGLKGTADTAIESNSWEKIDEFLSASLGETGKFTIFEDYSLVTVKARPDKFLLLHTFFDKLINESKMQIAVDYRVVSLSEERLNQLAAKFGIENAGKYSITSDMVDAISLSQVGGGLGASYRSASARLDAVVNELSQEVMHEGHFIGIPNRVMPLNVTTNSKYISSIETTKDTNTDEETRTVKVSDLVTGFSMMVMPKILDDGRIQISSGFSRKQLVSIGTAQGITLPTVDENESMNTVTMNPGEVRLAMLFKDNYIQNSNGVQLLGGGTENKKSARYIAVLVGASSYKTNDLASNRVNIYD	not soluble
MLRMDLQTYQKIYSSLHNFGDVFRLSEEYSRPAGMLATILNQKIVKMTRFKHRRVYSREKELFMKWKQGRSILELAEYTYFPPTLMASLILKNCDFSRKSINWLFKHLDCIENRRLRKEVRKALNADYFFSPRAHEMQCRKGEMGEEIVRKWLDDREIAYCTEAEIRAKGDGKTPDFVLSNPIFIEDHMVSWIESKALFGDDFEHKHYAKKQFREYADIFGEGMVVYWYGFLEDLSSEDEGYLIKDYRFFEGYQEQTDELFNYLVYWLEHHHHHH	not soluble
